Laboratory results as given in patent US9201073B2, “Methods and compositions for enhancing proteasome activity” (President and Fellows of Harvard College, priority 2007, dated 2015).

Key:
ubp6Δ proteasomes [1] = target: T1, ubp6Δ proteasomes (Saccharomyces cerevisiae, UniProt P30656+P43588); experiment: In vitro ub-cyclin B deubiquitination/degradation assay with purified yeast proteasomes; assay type: biochemical; settings: ubp6Δ proteasomes 135 nM; recombinant Ubp6 or Usp14 species 540 nM, Ubl and Ubl-MBP 1.35 μM, preincubated 5 min; immunoblot
T1 construct: proteasomes purified from ubp6Δ mutants; TEV-ProA (TEV site + protein A), chromosomally integrated (C); made in house
Protocol: Proteasomes (135 nM) were incubated with ub-cyclin Bin the presence of 1 mM ATP and buffer (50 mM Tris [pH 7.51, 1 mM EDTA, 5 mM MgCl2) for the indicated times. Reactions were terminated by the addition of 5×SDS Laemmli loading buffer (Leggett, et al. (2002). Multiple associated proteins regulate proteasome structure and function. Mol. Cell. 10, 495-507) and boiled for 5 min. Where indicated, recombinant, purified Ubp6 or Usp14 species (540 nM) were preincubated with proteasomes for 5 min prior to the reaction. […] Unless otherwise noted, immunoblots were visualized with anti-cyclin B1 polyclonal antibodies. Polyclonal antibodies recognizing Ubp6, Rpn5, Rpn12, and ubiquitin were used as indicated. Ub-cyclin B was added in molar excess over proteasome, generally on the order of 25-fold, except for FIGS. 4C, 6A and 6B, where the substrate:enzyme ratio was increased by a factor of five.
In the experiments of FIGS. 1, 4 (except FIG. 4C), and 6C, time points were sampled after the preparation of a single reaction mixture. The zero time points therefore reflect a lag which represents the amount of time required to sample the first time point after having prepared the reaction mixture. […] In the experiments of FIGS. 2, 4C, and 6 (except 6C), each time point was carried out as an independent reaction. The zero time points were prepared in the presence of 5×LLB, and accordingly, no processing could occur before time zero.
Ubiquitination of cyclin B was carried out. Briefly, for each 30 μl reaction, Anaphase Promoting Complex (APC) was immunopurified from 600 μl of mitotic Xenopus egg extract with 12 μg of anti-Cdc27 antibodies (AF3.1, Santa Cruz Biotechnologies, Santa Cruz, Calif.) bound to 30 μl of Affiprep Protein A beads (Bio-Rad, Hercules, Calif.). Beads were washed three times with XB high salt (10 mM potassium HEPES pH 7.7, 500 mM KCl, 0.1 mM CaCl2, 1 mM MgCl2), two times with XB (same but with 100 mM KCl), and then three times into the reaction buffer (20 mM Tris pH 7.5, 100 mM KCl, 2.5 mM MgCl2, 2 mM ATP). Ubiquitination reactions contained immunoprecipitated APC on 30 μl of beads, and 30 μl of a mix containing recombinant MBP-human E1 at 200 μg/ml, histidine-tagged Ubc4 at 66 μg/ml, ubiquitin at 1.25 mg/ml, and 50 μg/ml of histidine-tagged cyclin B1/cdc2 complex expressed in baculovirus. Reactions were incubated for 90 minutes at 22° C. with agitation on a shaker at 1,000 RPM. Reaction supernatants were combined with the eluate from the wash of beads with 20 μl of reaction buffer. Reactions were either used fresh after preparation or frozen at −80° C. until use with purified proteasomes.

26S human proteasomes = target: T2, 26S human proteasomes (Homo sapiens, UniProt O00487); experiment: In vitro Ubn-cyclin B1 degradation assay with human proteasomes; assay type: biochemical; settings: 4 nM human proteasomes, about 30 nM ubiquitinated cyclin B, Usp14 60 nM preincubated 5 min
T2 construct: HTBH (C); made in house; complex purified from it
Protocol: A stable 293 cell line expressing hRpn11-HTBH was used. Human proteasomes were purified as previously described with some modifications (Wang X and Huang L (2007) Identifying dynamic interactors of protein complexes by quantitative mass spectrometry. Mol Cell Proteomics. 2008 January; 7(1):46-57. Epub 2007 Oct. 12.
Assays were performed in proteasome preparation buffer (50 mM Tris [pH 7.5], 5 mM MgCl2, and 5 mM ATP) at ambient temperature for the indicated times. The 26S human proteasomes (4 nM) were incubated with approximately 30 nM of Ub-conjugated cyclin B1 as substrates. Cyclin was ubiquitinated using purified APC ubiquitin ligase. Where indicated, a 15-fold molar access of recombinant Usp14 over proteasomes were preincubated prior to adding Ubn-cyclin B1.
In the study shown in FIG. 14, 4 nM of human proteasomes were incubated with approximately 30 nM of ubiquitinated cyclin B in buffer (50 mM Tris [pH 7.5], 5 mM MgCl2, and 5 mM ATP). Where indicated, 15-fold molar access of Usp14 over proteasome (60 nM) was preincubated for 5 min before initiating degradation reactions. Ubiquitinated cyclin B was added at time zero. SDS-sample buffer was added to stop the reaction at the indicated time. Usp14 CA is a variant of Usp14 with a single amino acid substitution that eliminates the active site nucleophile of the enzyme (a cysteine to alanine replacement). […]

[2] = target: T3, RP purified from a ubp6Δ mutant (Saccharomyces cerevisiae, UniProt P43588); experiment: Processing of ub-cyclin B by regulatory particle (RP); assay type: biochemical, yeast; settings: RP 135 nM, four-fold molar excess of Ubp6 species
T3 construct: TEV-ProA (TEV site + protein A), chromosomally integrated (C); made in house
Protocol: FIGS. 6A and 6B depict the processing of ub-cyclin B by RP (ubp6Δ) in the presence or absence of purified Ubp6. Reactions were visualized by immunoblotting with anti-cyclin B antibody or anti-ubiquitin antibody, as indicated.
FIG. 12 is an illustration depicting the RP-mediated disassembly of Ub-cyclin B conjugates by Ubp6. Proteasome regulatory particle (135 nM) purified from a ubp6Δ strain was combined with a four-fold molar excess of Ubp6, Ubp6-ublΔ, or Ubp6-C118A, and Ub-Cyclin B, and incubated for the indicated times. Reactions were visualized by immunoblot with anti-ubiquitin antibody. *represents a non-ubiquitin immunoreactive band.
A previously described procedure for purification of the proteasome (Leggett, et al. (2002). Multiple associated proteins regulate proteasome structure and function. Mol. Cell. 10, 495-507) was modified by adding 1 mM ATP and 5 mM MgCl2 to all purification buffers, and by washing resins with 100 bed vol. of buffer containing 50 mM NaCl, as opposed to 50 bed vol. of buffer containing 100 mM NaCl. RP was purified in the presence of ATP and MgCl2 as described (Leggett et al., 2002).
Proteasomes (135 nM) were incubated with ub-cyclin Bin the presence of 1 mM ATP and buffer (50 mM Tris [pH 7.51, 1 mM EDTA, 5 mM MgCl2) for the indicated times. […]

proteasome = target: T4, proteasome (Saccharomyces cerevisiae, UniProt P43593); settings: cited from earlier work
T4 sequence (P43593 1-499): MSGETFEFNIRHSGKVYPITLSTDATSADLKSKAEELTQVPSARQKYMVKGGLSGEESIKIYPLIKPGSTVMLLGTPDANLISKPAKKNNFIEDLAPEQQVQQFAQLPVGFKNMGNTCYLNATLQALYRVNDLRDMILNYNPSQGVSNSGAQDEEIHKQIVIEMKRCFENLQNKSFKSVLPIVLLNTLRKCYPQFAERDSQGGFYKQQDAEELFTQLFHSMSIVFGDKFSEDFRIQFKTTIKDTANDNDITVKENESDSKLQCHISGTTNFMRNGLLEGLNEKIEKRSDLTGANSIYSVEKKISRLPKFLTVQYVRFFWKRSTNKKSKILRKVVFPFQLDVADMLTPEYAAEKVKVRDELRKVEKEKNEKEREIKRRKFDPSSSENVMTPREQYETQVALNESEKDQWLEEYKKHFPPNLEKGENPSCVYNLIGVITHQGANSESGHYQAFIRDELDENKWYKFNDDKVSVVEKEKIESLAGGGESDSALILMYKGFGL

ubiquitin ethyl ester = settings: cited from earlier work
ubp6Δ proteasomes [3] = target: T1, ubp6Δ proteasomes; experiment: Quantitation of proteasome inhibition by quantitative mass spectrometry of cyclin B; assay type: biochemical, yeast; settings: 20-minute incubation
Protocol: A standard substrate degradation assay was carried out, and analyzed in parallel by SDS-PAGE followed by Coomassie blue staining and immunoblot with anti-cyclin B antibody. Immunoblots were used to identify and excise the cyclin B-containing regions of the Coomassie-stained gel, and the lanes were analyzed by mass spectrometry.
To quantify the extent of proteasome inhibition by Ubp6, a method of quantitative mass spectrometry was utilized. After a 20-minute incubation, approximately half of the total cyclin B was degraded by ubp6Δ proteasomes (FIG. 4C).

Ub-cyclin B = target: T5, Ub-cyclin B (Homo sapiens, UniProt P14635); experiment: Ub-cyclin B binding assay (GST pull down); settings: GST resin pull down, immunoblot
T5 construct: histidine tag; made in house; host or cells: cyclin B1/cdc2: baculovirus expression; GST-Ubp6: pGEX-4T-1 (bacterial)
T5 sequence (P14635 whole entry, other chains not shown): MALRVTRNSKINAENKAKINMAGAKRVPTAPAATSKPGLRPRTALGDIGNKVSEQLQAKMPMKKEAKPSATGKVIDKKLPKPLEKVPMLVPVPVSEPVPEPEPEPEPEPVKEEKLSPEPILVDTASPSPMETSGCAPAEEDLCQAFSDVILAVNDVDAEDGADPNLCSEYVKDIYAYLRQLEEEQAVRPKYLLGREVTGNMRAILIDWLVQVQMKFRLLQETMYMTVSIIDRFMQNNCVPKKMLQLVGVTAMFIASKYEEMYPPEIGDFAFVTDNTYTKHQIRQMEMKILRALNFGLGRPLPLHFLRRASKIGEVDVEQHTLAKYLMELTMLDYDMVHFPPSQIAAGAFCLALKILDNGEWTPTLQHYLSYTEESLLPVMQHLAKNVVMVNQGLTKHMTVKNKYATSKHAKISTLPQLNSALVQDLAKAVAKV
T5 sequence (P06493 whole entry partner, other chains not shown): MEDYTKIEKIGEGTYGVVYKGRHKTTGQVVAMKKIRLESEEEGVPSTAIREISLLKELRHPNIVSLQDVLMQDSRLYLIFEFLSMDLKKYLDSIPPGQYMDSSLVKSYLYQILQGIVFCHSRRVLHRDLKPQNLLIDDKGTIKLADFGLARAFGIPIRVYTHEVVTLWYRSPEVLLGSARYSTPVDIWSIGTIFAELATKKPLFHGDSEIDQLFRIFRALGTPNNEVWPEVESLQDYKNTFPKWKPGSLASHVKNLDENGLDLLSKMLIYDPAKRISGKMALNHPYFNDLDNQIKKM

With “Usp14: human homolog of Ubp6, purified recombinant deubiquitinating enzyme” the “inhibition of cyclin B degradation” value (ubp6Δ proteasomes [1]) was “largely recapitulated the effects of Ubp6” and the “suppression of cyclin B degradation by human proteasomes” value (26S human proteasomes) was “suppression of cyclin B degradation”.

B1: Ubp6: yeast proteasomal deubiquitinating enzyme, endogenous proteasome inhibitor; purified recombinant protein (protein)
chain: MSGETFEFNIRHSGKVYPITLSTDATSADLKSKAEELTQVPSARQKYMVKGGLSGEESIKIYPLIKPGSTVMLLGTPDANLISKPAKKNNFIEDLAPEQQVQQFAQLPVGFKNMGNTCYLNATLQALYRVNDLRDMILNYNPSQGVSNSGAQDEEIHKQIVIEMKRCFENLQNKSFKSVLPIVLLNTLRKCYPQFAERDSQGGFYKQQDAEELFTQLFHSMSIVFGDKFSEDFRIQFKTTIKDTANDNDITVKENESDSKLQCHISGTTNFMRNGLLEGLNEKIEKRSDLTGANSIYSVEKKISRLPKFLTVQYVRFFWKRSTNKKSKILRKVVFPFQLDVADMLTPEYAAEKVKVRDELRKVEKEKNEKEREIKRRKFDPSSSENVMTPREQYETQVALNESEKDQWLEEYKKHFPPNLEKGENPSCVYNLIGVITHQGANSESGHYQAFIRDELDENKWYKFNDDKVSVVEKEKIESLAGGGESDSALILMYKGFGL
In the case of B1, the “inhibition of cyclin B degradation” value (ubp6Δ proteasomes [1]) is listed as “marked inhibition of cyclin B degradation”, the “processing of ub-cyclin B conjugates by RP” value [2] is listed as “chain shortening” and the “activation of Ubp6's catalytic activity on binding to the proteasome” value (proteasome) is listed as “over 300 fold”. The “KM of Ubp6 for ubiquitin ethyl ester” value (ubiquitin ethyl ester) was “so high as to be unmeasurable” and the “inhibition of degradation (cyclin B)” value (ubp6Δ proteasomes [3]) was “approximately 70%”.

B2: GST-Ubp6: GST fusion of Ubp6 on resin (protein)
chain: MSGETFEFNIRHSGKVYPITLSTDATSADLKSKAEELTQVPSARQKYMVKGGLSGEESIKIYPLIKPGSTVMLLGTPDANLISKPAKKNNFIEDLAPEQQVQQFAQLPVGFKNMGNTCYLNATLQALYRVNDLRDMILNYNPSQGVSNSGAQDEEIHKQIVIEMKRCFENLQNKSFKSVLPIVLLNTLRKCYPQFAERDSQGGFYKQQDAEELFTQLFHSMSIVFGDKFSEDFRIQFKTTIKDTANDNDITVKENESDSKLQCHISGTTNFMRNGLLEGLNEKIEKRSDLTGANSIYSVEKKISRLPKFLTVQYVRFFWKRSTNKKSKILRKVVFPFQLDVADMLTPEYAAEKVKVRDELRKVEKEKNEKEREIKRRKFDPSSSENVMTPREQYETQVALNESEKDQWLEEYKKHFPPNLEKGENPSCVYNLIGVITHQGANSESGHYQAFIRDELDENKWYKFNDDKVSVVEKEKIESLAGGGESDSALILMYKGFGL
modifications: left off: a dimerising Fc or GST
notes: GST fusion of Ubp6 on resin
For B2, the “binding of Ub-cyclin B conjugates” value (Ub-cyclin B) was “No detectable binding”.
